Results on 23 molecules are retold here after patent US20190127480A1 (Regeneron, published 2019).

B1: H2M2690N (antibody, mouse IgG2, V domains shown)
VH: EVQLVESGGGLVQPGRSLRLSCAASGFTFDDYTMHWVRQAPGKGLEWVSGISWNSGSIGYADSVKGRFTISRDNAKKSLYLQMNSLRAEDTALYYCAKDNSGYGHYYYGMDVWGQGTTVTVAS
VL: EIVMTQSPATLSVSPGERATLSCRASQSVSSNLAWYQQKPGQAPRLLIYGASTRATGIPARFSGSGSGTEFTLTISSLQSEDFAVYYCQHYINWPLTFGGGTKVEIK
B2: H2M2706N (antibody, mouse IgG2, V domains shown)
VH: QVQLVESGGGVVQPGRSLRLSCAASGFTFRSYAMHWVRQAPGKGLEWVAMVYYDGNNQYYADSVRGRFTISRDNSKNTLYLQMNSLRADDTAVYFCARGPGYNWLDPWGQGTLVTVSS
VL: B1 VL with S31R, E70D, H90Q, I92N, E105V
B3: H1M2692N (antibody, mouse IgG1, V domains shown)
VH: EVQLVESGGGLVQPGGSLRLSCAASGFSFDDYTMHWVRQPPGKGLEWVSGISWNSGSIGYADSVKGRFTISRDNAKNSLYLQMNSLRAGDTALYYCAKDNSGYGYYYYYGMDVWGQGTTVTVSS
VL: B1 VL with H90Q, I92Y
B4: H2M2710N (antibody, V domains shown)
VH: B2 VH with Y32F, A33G, K43R, V51I, Y53F, N56K, Q58K, Q82E, N84S, D89E
VL: B1 VL with S31R, I58V, Y86F, Y87H, H90Q, I92N, W94R, K103E
B5: H2M2711N (antibody, V domains shown)
VH: B2 VH with Y32F, A33G, K43R, V51I, Y53F, N56K, Q58K, Q82E, N84S, D89E
VL: B1 VL with S31R, I58V, Y86F, Y87H, H90Q, I92N, W94R, K103E
B6: H1M2712N (antibody, mouse IgG1, V domains shown)
VH: B1 VH with R16G, S25T, Y32F, A61V, K77N, H105Y, A122S
VL: B1 VL with Q27H, S31R, L33S, V85I, H90Q, I92N
B7: H2M2708N (antibody, mouse IgG2, V domains shown)
VH: B2 VH with Y32F, A33G, K43R, V51I, Y53F, N56K, Q58K, Q82E, N84S, D89E
VL: B1 VL with A19V, V29I, S31R, I58V, Y86F, Y87H, H90Q, I92N, W94R, K103E
B8: H2M2705N (antibody, mouse IgG2, V domains shown)
VH: QVQLVESGGGVVQPGRSLRLACVASGFTFRSYGMHWVRQAPGKGLQWVAMIYYDGKNKYYADSVRGRFTISRDNSKNTLYLQMNNLRVEDTAMYFCARGPGYNWLDPWGQGTLVTVSS
VL: B1 VL with S28R, V29I, I58S, E70D, F83V, H90Q, Y91H, I92H
B9: H2M2774N (antibody, mouse IgG2, V domains shown)
VH: B8 VH with A21S, N85S, V88A
VL: B1 VL with S28R, V29I, I58S, F83V, H90Q, Y91H, I92N
B10: H2M2707N (antibody, mouse IgG2, V domains shown)
VH: B2 VH with A23I, A33G, V51I, Q58K
VL: B1 VL with H90Q, I92N, W94R
B11: H2M2691N (antibody, mouse IgG2, V domains shown)
VH: B1 VH
VL: B1 VL
B12: H2M2689N (antibody, mouse IgG2, V domains shown)
VH: QVQLVESGGGVVQPGRSLRLSCAASGFTFSRKGMHWVRQAPVKGLEWVAVISYDGSNKYYADSVKGRFTISRDNSKNTLYLQMNSLTAEDTAVYYCAKEGGHDYGGTFDYWGQGTLVTVSS
VL: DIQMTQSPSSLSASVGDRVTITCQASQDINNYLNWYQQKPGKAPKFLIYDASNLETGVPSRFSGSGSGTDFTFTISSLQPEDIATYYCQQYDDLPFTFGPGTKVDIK
B13: H1H11800P2 (antibody, human IgG1, V domains shown)
VH: QVQLVESGGGVVQPGRSLRLSCAASGFTFSSYGMHWVRQAPGKGLEWVAVISYAGNNKYYVDSVKGRFTISRDNSKNTLYLQMNSLRAEDTAVYYCAKDPYYDFLTGSDYFDYWGQGTLVTVSS
VL: DIQMTQSPSSLSASVGDSVTITCRASQSINNYLNWYQQKPGKAPKLLIYTASSLLSGVPSRFSGSGSGTDFTLTISGLHPEDFATYFCQQSFSTPPITFGQGTRLDIK
notes: human IgG1
B14: H1H11792P2 (antibody, human IgG1, V domains shown)
VH: QVQLVESGGGVVQPGRSLRLSCAASGFTFSSYGMHWVRQPPGKGLEWVAIMSYDGSNKYYADSVKGRFTISRDNSKNTLYLQMNSLRVEDTAVYYCAKDQYYDFLTFDYTLDYWGQGTLVTVSS
VL: B13 VL
notes: human IgG1
B15: H1H11804P2 (antibody, human IgG1, V domains shown)
VH: QVQLVESGGGVVQPGRSLRLSCAASGFTFISYGMHWVRQAPGKGLEWVAVISYDGSNKYYADSVKGRFTISRDNSKNTLFLQMNSLRAEDTAVYYCAKNYDFWNGYVGYYGMDVWGQGTTVTVSS
VL: B13 VL
notes: human IgG1
B16: H1H11835P2 (antibody, human IgG1, V domains shown)
VH: EVQLVESGGGLVQSGGSLRLSCEASGFTFSNYWMTWIRQGPGKGLEWVANIKPDGTENYYVDSVKGRFTISRDNARNSLYLQMTSLKAEDTAVYYCGRMIQFVINIWGQGTLVTVSS
VL: B13 VL
notes: human IgG1
B17: H1H11808P2 (antibody, human IgG1, V domains shown)
VH: QVQLVESGGGVVQPGRSLRLSCAASGFPFNSYGMHWVRQAPGKGLEWVAVISYDGSNRYYADSVKGRFTISRDNSKYTLDLHVSSLTTDDTAVYYCARDRRYGKWEQLYPDYLGQGTLVTVSS
VL: B13 VL
notes: human IgG1
B18: H1H11805P2 (antibody, human IgG1, V domains shown)
VH: EVQLVESGGGLVQPGGSLRLSCVVSGFTFNNYWMSWVRQAPGKGLEWVANIKKDGSEKYYVDSVKGRFTISRDNAKNSLYLQMNSLRAEDTAVYYCARDIMATIIDWGQGTLVTVSS
VL: B13 VL
notes: human IgG1
B19: H1H11838P2 (antibody, human IgG1, V domains shown)
VH: QVQLVESGGGVVQPGRSLRLSCAASGFTFSSYGMHWVRQAPGKGLEWVAFMSYDGSNKFYSDSVKGRFTISRDNSRKMLFLQMNNLRAEDTAVYYCARDQYYDFLTDHGVFDYWGQGTLVTVSS
VL: B13 VL
notes: human IgG1
B20: H1H11836P2 (antibody, human IgG1, V domains shown)
VH: QVQLVESGGGVVQPGRSLRLSCAASGFTFRSYGMHWVRQAPGKGLEWVAFISYDESNKHQADSVKGRFTISRDNSKNTLYLQMNSLRAEDTAVYFCAKDQYYDFLTAYDTLDYWGQGTLVTVSS
VL: B13 VL
notes: human IgG1
B21: H1H11837P2 (antibody, human IgG1, V domains shown)
VH: QVQLVESGGGVVQPGRSLRLSCAASGFTFSSYGMHWVRQAPGKGLEWVTFISYDGNNKYYSDSVKGRFAISRDNSKNTLYLQMNSLRAEDTSVYFCAKDQYYDFLTDFGVFDYWGQGTLVTVSS
VL: B13 VL
notes: human IgG1
B22: H1H11810P2 (antibody, human IgG1, V domains shown)
VH: QVQLVESGGGVVQPGRSLRLSCAASGFTFSSYGMHWVRQAPGKGLEWVAVISYAGNNKYYADSVKGRFTVSRDNSKKTLYLQMNSLRSEDTAVYYCAKDSYYDFLTDPDVLDIWGQGTMVTVSS
VL: B13 VL
notes: human IgG1; also called PSMA-VH-11810 (its HCVR)
B23: H1H11803P2 (antibody, human IgG1, V domains shown)
VH: QVQLVESGGGVVQPGRSLRLSCAASGFTFSSYGMHWVRQAPGKGLEWVAVIWYDGNNKYYADSVKGRFTISRDNSKKTLYLQMTSLRAEDTAVYYCARDQYYDILTADNTLDYWGQGTLVTVSS
VL: B13 VL
notes: human IgG1

Numbering of substitutions follows the chain as printed.

human CD3 expressed on cells (Jurkat cells; human T-cells of PBMC), sequence (chain, as listed by the source, chain 1 of 4): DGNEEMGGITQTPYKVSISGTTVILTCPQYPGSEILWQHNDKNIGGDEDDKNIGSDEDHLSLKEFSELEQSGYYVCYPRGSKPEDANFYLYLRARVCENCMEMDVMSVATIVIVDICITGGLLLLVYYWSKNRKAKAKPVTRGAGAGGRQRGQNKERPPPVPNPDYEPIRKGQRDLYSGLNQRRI
human CD3 expressed on cells (Jurkat cells; human T-cells of PBMC), sequence (chain, as listed by the source, chain 2 of 4): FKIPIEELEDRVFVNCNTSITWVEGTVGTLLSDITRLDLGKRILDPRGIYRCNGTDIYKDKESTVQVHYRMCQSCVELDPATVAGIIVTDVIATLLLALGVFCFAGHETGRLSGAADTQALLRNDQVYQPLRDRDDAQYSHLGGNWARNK
human CD3 expressed on cells (Jurkat cells; human T-cells of PBMC), sequence (P09693 23-182, chain 3 of 4): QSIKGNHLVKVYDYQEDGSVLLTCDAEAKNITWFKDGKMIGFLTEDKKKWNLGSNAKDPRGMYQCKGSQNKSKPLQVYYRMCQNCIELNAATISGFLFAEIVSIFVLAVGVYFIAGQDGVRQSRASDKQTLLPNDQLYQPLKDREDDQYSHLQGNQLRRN
human CD3 expressed on cells (Jurkat cells; human T-cells of PBMC), sequence (P20963 22-164, chain 4 of 4): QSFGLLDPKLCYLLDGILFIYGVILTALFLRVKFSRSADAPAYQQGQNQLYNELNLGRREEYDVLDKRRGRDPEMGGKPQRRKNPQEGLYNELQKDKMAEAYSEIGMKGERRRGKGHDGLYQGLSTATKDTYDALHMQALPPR

One test addresses human CD3 expressed on cells (Jurkat cells; human T-cells of PBMC) (human, UniProt P09693 23-182; P20963 22-164). Description: cell-based or functional assay.
For B1, the “U937 Cytotoxicity Human T-cells” value amounted to 27.9 pM.
On the same count and under the same terms, the same measure for B2: 7.91 pM; for B3: 359 pM.
Turning to B4, the “U937 Cytotoxicity Human T-cells” value turned out to be 3.97 pM.
Regarding B5, the “U937 Cytotoxicity Human T-cells” value was 3.66 pM.
Same read-out and setting: the value for B6 was 314 pM.
The same measure, in the same setting: the value for B7 was 3.27 pM; that for B8 was 1.73 pM.
Turning to B9, the “U937 Cytotoxicity Human T-cells” value is 2.46 pM.
For the molecule B10, the “U937 Cytotoxicity Human T-cells” value came out at 7.21 pM.
As to B11, the “U937 Cytotoxicity Human T-cells” value is 23.4 pM.
With B12, the “U937 Cytotoxicity Human T-cells” value is 0 pM.

The target of another test is T1, human PSMA expressed with an N-terminal hexahistidine tag (6h.hPSMA, R&D) (human, UniProt Q04609 44-750).
T1 construct: Bought soluble protein; also called soluble human PSMA; human PSMA protein
T1 sequence (Q04609 other isoform, or with tags, fused parts or gaps limits assumed): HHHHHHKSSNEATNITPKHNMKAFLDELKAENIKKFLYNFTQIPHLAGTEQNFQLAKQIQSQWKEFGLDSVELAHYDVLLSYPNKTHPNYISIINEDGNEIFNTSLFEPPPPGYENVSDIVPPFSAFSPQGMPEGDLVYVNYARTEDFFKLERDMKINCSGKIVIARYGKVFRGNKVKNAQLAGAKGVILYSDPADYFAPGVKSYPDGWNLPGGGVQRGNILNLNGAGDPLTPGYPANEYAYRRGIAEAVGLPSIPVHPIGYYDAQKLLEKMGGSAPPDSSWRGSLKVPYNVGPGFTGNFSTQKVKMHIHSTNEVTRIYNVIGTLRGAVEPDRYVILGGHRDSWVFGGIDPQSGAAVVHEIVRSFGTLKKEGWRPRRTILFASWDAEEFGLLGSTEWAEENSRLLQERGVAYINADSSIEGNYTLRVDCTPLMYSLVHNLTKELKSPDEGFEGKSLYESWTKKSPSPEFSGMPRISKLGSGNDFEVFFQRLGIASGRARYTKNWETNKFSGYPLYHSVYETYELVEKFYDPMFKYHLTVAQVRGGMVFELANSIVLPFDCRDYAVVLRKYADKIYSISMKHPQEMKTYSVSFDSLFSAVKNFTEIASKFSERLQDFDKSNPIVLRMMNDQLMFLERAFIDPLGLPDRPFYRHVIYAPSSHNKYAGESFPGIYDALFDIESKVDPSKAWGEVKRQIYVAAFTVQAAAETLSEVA
Description: SPR Biacore T-200, 37 C, antibody-capture (anti-human Fc), 6h.hPSMA as analyte. The method, then: In this example, anti-PSMA antibodies were assessed for their ability to bind to human PSMA. […] Measurements were conducted on a Biacore™ T-200 instrument (GE Healthcare).
Briefly, a CM5 Biacore™ sensor surface was derivatized via amine coupling with a monoclonal mouse anti-human Fc antibody (GE, # BR-1008-39) or monoclonal goat anti-mouse Fc antibody (GE, # BR-1008-38) to capture purified anti-PSMA antibodies. Binding studies were performed in HBSP++ buffer composed of 0.01M HEPES, 0.15M NaCl, 2 mM Ca²⁺, 2 mM Mg²⁺, 0.05% v/v Surfactant P20, pH7.4. Varying concentrations of human PSMA expressed with an N-terminal hexahistidine tag (6h.hPSMA, R&D) prepared in HBSP++ running buffer (ranging from 50 to 0.78 nM, 4-fold dilutions) were injected over the anti-PSMA antibody captured surface at a flow rate of 30 μL/minute. Antibody-reagent association was monitored for 2 minutes while dissociation in HBSP++ running buffer was monitored for 8 minutes.
Kinetic association (kₐ) and dissociation (kd) rate constants were determined by fitting the real-time sensorgrams to a 1:1 binding model using Scrubber 2.0c curve fitting software. Binding dissociation equilibrium constants (KD) and dissociative half-lives (t½) were calculated from the kinetic rate constants as: KD (M)=kd/kₐ; and t_{1/2} (min)=(ln 2/(60*kd).
Consider B13, for which the dissociation constant (Kd) (usually the concentration at which binding is half-saturated) was 0.163 nM; the koff – broadly, the first-order rate constant of dissociation – was determined as 4.1e-05 s⁻¹; the kon (in general, a measure of how fast the partners come together) was 251000 M⁻¹ s⁻¹; the “t1/2” value amounted to 282 min.
With B14, the Kd was 0.205 nM, the koff was determined as 9.7e-05 s⁻¹, the kon came to 473000 M⁻¹ s⁻¹ and the “t1/2” value came out at 119 min.
The like results for B15 were, in that order, 39.4 nM, 0.000801 s⁻¹, 20300 M⁻¹ s⁻¹ and 14.4 min.
Take B16: the Kd is 14 nM, the koff was 0.00246 s⁻¹, the kon came to 175000 M⁻¹ s⁻¹ and the “t1/2” value is 4.7 min.
For B17, the Kd is no more than 0.0563 nM, the koff is no more than 1e-05 s⁻¹, the on-rate constant (kon) was 178000 M⁻¹ s⁻¹ and the “t1/2” value was no less than 1160 min.
With B18, the Kd stood at 75.6 nM, the koff was determined as 0.00974 s⁻¹, the kon is 129000 M⁻¹ s⁻¹ and the “t1/2” value turned out to be 1.2 min.
For the molecule B19, the affinity, expressed as Kd, was 1.99 nM; the off-rate constant (koff) was determined as 0.000471 s⁻¹; the on-rate constant (kon) is 237000 M⁻¹ s⁻¹; the “t1/2” value is 24.5 min.
Regarding B20, the dissociation constant Kd was 0.855 nM, the koff amounted to 0.00028 s⁻¹, the kon came to 327000 M⁻¹ s⁻¹ and the “t1/2” value turned out to be 41.3 min.
For the molecule B21, the equilibrium dissociation constant (Kd) was determined as 1.66 nM, the off-rate (koff) amounted to 0.000734 s⁻¹, the on-rate constant (kon) was 441000 M⁻¹ s⁻¹ and the “t1/2” value stood at 15.7 min.
On to B22, for which the dissociation constant (Kd) was no more than 0.0199 nM, the off-rate constant (koff) was no more than 1e-05 s⁻¹, the association rate constant (kon) was 503000 M⁻¹ s⁻¹ and the “t1/2” value was no less than 1160 min.
B23: the Kd came to 1.33 nM, the koff worked out at 0.000608 s⁻¹, the kon came out at 457000 M⁻¹ s⁻¹ and the “t1/2” value stood at 19 min.
